Measured values from article PMC12371199, “Identification of c‐Met on Tumor Cells as a Novel Receptor for B7‐H3 Entails Implications for Cancer Cell Stemness and Targeted Therapy” (MedComm, 2025).

Experiments:
[1] = target: T1, purified recombinant extracellular domain of c‐Met (from Met1 to Thr932), c‐Met‐his (human, UniProt P08581 25-932); assay: SPR
T1 chain: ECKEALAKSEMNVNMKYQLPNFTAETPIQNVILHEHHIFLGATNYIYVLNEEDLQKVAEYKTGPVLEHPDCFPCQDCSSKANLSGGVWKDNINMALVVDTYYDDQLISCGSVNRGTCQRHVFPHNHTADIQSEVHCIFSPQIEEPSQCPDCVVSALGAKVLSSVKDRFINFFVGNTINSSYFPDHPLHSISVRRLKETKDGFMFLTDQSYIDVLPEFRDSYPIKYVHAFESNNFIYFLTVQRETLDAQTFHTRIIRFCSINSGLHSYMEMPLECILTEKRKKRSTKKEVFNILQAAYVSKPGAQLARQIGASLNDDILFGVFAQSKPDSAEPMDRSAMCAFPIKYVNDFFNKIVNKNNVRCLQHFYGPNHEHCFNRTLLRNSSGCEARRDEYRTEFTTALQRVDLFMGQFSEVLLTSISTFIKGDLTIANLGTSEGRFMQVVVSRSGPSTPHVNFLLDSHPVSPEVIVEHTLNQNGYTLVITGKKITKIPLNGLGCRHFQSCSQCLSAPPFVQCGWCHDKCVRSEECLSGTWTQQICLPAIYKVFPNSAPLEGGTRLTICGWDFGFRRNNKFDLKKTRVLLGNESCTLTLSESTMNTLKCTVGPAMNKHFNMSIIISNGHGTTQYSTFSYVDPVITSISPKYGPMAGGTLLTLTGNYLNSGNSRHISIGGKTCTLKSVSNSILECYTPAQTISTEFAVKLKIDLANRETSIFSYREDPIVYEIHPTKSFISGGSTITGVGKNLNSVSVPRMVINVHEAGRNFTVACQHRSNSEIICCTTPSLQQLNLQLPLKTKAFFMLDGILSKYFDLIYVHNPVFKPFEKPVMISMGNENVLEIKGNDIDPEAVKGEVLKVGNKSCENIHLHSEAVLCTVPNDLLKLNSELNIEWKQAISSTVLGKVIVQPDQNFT

[2] = target: T2, purified recombinant extracellular domain of c‐Met (from Met1 to Thr932), c‐Met‐his (human, UniProt P08581 25-932); assay: SPR; Biacore T200; c‐Met‐his immobilised on CM5 chip (10 mM sodium acetate pH 4.5); B7‐H3‐his as analyte in serial doubling concentrations up to 100 µM; 30 µL/min, 25°C; 1:1 model, global fit; settings: both partners purified
T2 construct: signal peptide in the construct; c-Met (hepatocyte growth factor receptor), extracellular domain, Met1 to Thr932; The limits and supplier are told for the SPR; source: bought: Sino Biological (Beijing, China)

B1: purified recombinant extracellular domain of B7‐H3 (from Gly27 to Thr461), B7‐H3‐his (domain or fragment, human, UniProt Q5ZPR3 27-461, looked up)
chain: GALEVQVPEDPVVALVGTDATLCCSFSPEPGFSLAQLNLIWQLTDTKQLVHSFAEGQDQGSAYANRTALFPDLLAQGNASLRLQRVRVADEGSFTCFVSIRDFGSAAVSLQVAAPYSKPSMTLEPNKDLRPGDTVTITCSSYQGYPEAEVFWQDGQGVPLTGNVTTSQMANEQGLFDVHSILRVVLGANGTYSCLVRNPVLQQDAHSSVTITPQRSPTGAVEVQVPEDPVVALVGTDATLRCSFSPEPGFSLAQLNLIWQLTDTKQLVHSFTEGRDQGSAYANRTALFPDLLAQGNASLRLQRVRVADEGSFTCFVSIRDFGSAAVSLQVAAPYSKPSMTLEPNKDLRPGDTVTITCSSYRGYPEAEVFWQDGQGVPLTGNVTTSQMANEQGLFDVHSVLRVVLGANGTYSCLVRNPVLQQDAHGSVTITGQPMT
notes: B7-H3 (CD276), human, extracellular domain, Gly27 to Thr461; The limits and supplier are told for the SPR; also called soluble recombinant B7‐H3; source: bought: BioIntron (Taizhou, China)
[1]
  koff: 0.000707 s⁻¹
[2]
  Kd: 1.66 µM
